# According to paper PMC9352680, “A comprehensive thermodynamic model for RNA binding by the Saccharomyces cerevisiae Pumilio protein PUF4”:
# T1: PUF4 RNA-binding domain (Saccharomyces cerevisiae, UniProt P25339 537-888)
# T1 sequence: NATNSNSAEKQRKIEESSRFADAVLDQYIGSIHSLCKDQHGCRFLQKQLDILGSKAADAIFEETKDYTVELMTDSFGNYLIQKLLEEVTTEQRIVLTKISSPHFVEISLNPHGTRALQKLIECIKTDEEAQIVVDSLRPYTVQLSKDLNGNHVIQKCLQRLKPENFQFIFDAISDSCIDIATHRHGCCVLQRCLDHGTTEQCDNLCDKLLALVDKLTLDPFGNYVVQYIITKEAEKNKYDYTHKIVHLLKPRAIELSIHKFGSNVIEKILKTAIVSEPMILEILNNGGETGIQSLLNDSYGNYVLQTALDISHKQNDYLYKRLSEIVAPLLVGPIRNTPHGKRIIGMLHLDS
# Molecular target: T1, PUF4 RNA-binding domain
# Assay: Mg; RNA-MaP; 20 mM Na-HEPES pH 7.4, 30 mM KOAc, 0.75 mM MgCl2, 0.1% Tween-20, 5% glycerol, 0.1 mg/mL BSA, 2 mM DTT; 25 C; 0.0125-409.6 nM protein
# Settings: tags: N-His6-TEV cleaved; C-SNAP kept, Cy3B-labelled; label: tethered on chip by stalled RNA polymerase
binder,measurement,value
UCUCUUUUUAUAUCUCUCUU (ssRNA) [Ib_S1_P3E.1_K3.1_C3.1_H3.1_[G2T]_A3.1_F3.1_[A8C]_T3.1],Kd,> 2300 nM
UCUCUUUGUACAACUUCUCUU (ssRNA) [Ic_S1_P4E.1_K4.1_C4.1_H4.1_A4.1_[T5C]_[T7A]_F4.1_[T8C]_[A9T]_T4.1],Kd,33.9 nM
UCUCUUUGUACAACAUCUCUU (ssRNA) [Ic_S1_P4E.1_K4.1_C4.1_H4.1_A4.1_[T5C]_[T7A]_F4.1_[T8C]_T4.1],Kd,14.4 nM
UCUCUUUGUACAAACUCUCUU (ssRNA) [Ic_S1_P4E.1_K4.1_C4.1_H4.1_A4.1_[T5C]_[T7A]_F4.1_[T8A]_[A9C]_T4.1],Kd,142 nM
UCUCUUUGUACAAAUUCUCUU (ssRNA) [Ic_S1_P4E.1_K4.1_C4.1_H4.1_A4.1_[T5C]_[T7A]_F4.1_[T8A]_[A9T]_T4.1],Kd,125 nM
UCUCUUUGUACAAAAUCUCUU (ssRNA) [Ic_S1_P4E.1_K4.1_C4.1_H4.1_A4.1_[T5C]_[T7A]_F4.1_[T8A]_T4.1],Kd,34.1 nM
UCUCUUUGUACAAUGUCUCUU (ssRNA) [Ic_S1_P4E.1_K4.1_C4.1_H4.1_A4.1_[T5C]_[T7A]_F4.1_[A9G]_T4.1],Kd,7.97 nM
UCUCUUUGUACAAUCUCUCUU (ssRNA) [Ic_S1_P4E.1_K4.1_C4.1_H4.1_A4.1_[T5C]_[T7A]_F4.1_[A9C]_T4.1],Kd,16.7 nM
UCUCUUUGUACAAUUUCUCUU (ssRNA) [Ic_S1_P4E.1_K4.1_C4.1_H4.1_A4.1_[T5C]_[T7A]_F4.1_[A9T]_T4.1],Kd,11.2 nM
UCUCUUUGUACAUGGUCUCUU (ssRNA) [Ic_S1_P4E.1_K4.1_C4.1_H4.1_A4.1_[T5C]_F4.1_[T8G]_[A9G]_T4.1],Kd,59.6 nM
UCUCUUUGUACAUGCUCUCUU (ssRNA) [Ic_S1_P4E.1_K4.1_C4.1_H4.1_A4.1_[T5C]_F4.1_[T8G]_[A9C]_T4.1],Kd,28.6 nM
UCUCUUUCUAUAUUUCUCUU (ssRNA) [Ib_S1_P3E.1_K3.1_C3.1_H3.1_[G2C]_A3.1_F3.1_[A8T]_T3.1],Kd,> 2300 nM
UCUCUUUGUACAUGUUCUCUU (ssRNA) [Ic_S1_P4E.1_K4.1_C4.1_H4.1_A4.1_[T5C]_F4.1_[T8G]_[A9T]_T4.1],Kd,20.9 nM
UCUCUUUGUACAUCCUCUCUU (ssRNA) [Ic_S1_P4E.1_K4.1_C4.1_H4.1_A4.1_[T5C]_F4.1_[T8C]_[A9C]_T4.1],Kd,29.5 nM
UCUCUUUGUACAUCUUCUCUU (ssRNA) [Ic_S1_P4E.1_K4.1_C4.1_H4.1_A4.1_[T5C]_F4.1_[T8C]_[A9T]_T4.1],Kd,21.1 nM
UCUCUUUGUACAUAGUCUCUU (ssRNA) [Ic_S1_P4E.1_K4.1_C4.1_H4.1_A4.1_[T5C]_F4.1_[T8A]_[A9G]_T4.1],Kd,5.5 nM
UCUCUUUGUAAGCCCUCUCUU (ssRNA) [Ic_S1_P4E.1_K4.1_C4.1_H4.1_A4.1_[T5A]_[A6G]_[T7C]_F4.1_[T8C]_[A9C]_T4.1],Kd,2290 nM
UCUCUUUGUAAGCCAUCUCUU (ssRNA) [Ic_S1_P4E.1_K4.1_C4.1_H4.1_A4.1_[T5A]_[A6G]_[T7C]_F4.1_[T8C]_T4.1],Kd,515 nM
UCUCUUUGUAAGCACUCUCUU (ssRNA) [Ic_S1_P4E.1_K4.1_C4.1_H4.1_A4.1_[T5A]_[A6G]_[T7C]_F4.1_[T8A]_[A9C]_T4.1],Kd,1880 nM
UCUCUUUGUAAGCUGUCUCUU (ssRNA) [Ic_S1_P4E.1_K4.1_C4.1_H4.1_A4.1_[T5A]_[A6G]_[T7C]_F4.1_[A9G]_T4.1],Kd,544 nM
UCUCUUUGUAAGCUCUCUCUU (ssRNA) [Ic_S1_P4E.1_K4.1_C4.1_H4.1_A4.1_[T5A]_[A6G]_[T7C]_F4.1_[A9C]_T4.1],Kd,1840 nM
UCUCUUUGUAAGCUAUCUCUU (ssRNA) [Ic_S1_P4E.1_K4.1_C4.1_H4.1_A4.1_[T5A]_[A6G]_[T7C]_F4.1_T4.1],Kd,26.5 nM
UCUCUUUAUAUAUUUCUCUU (ssRNA) [Ib_S1_P3E.1_K3.1_C3.1_H3.1_[G2A]_A3.1_F3.1_[A8T]_T3.1],Kd,696 nM
UCUCUUUGUAACGCGUCUCUU (ssRNA) [Ic_S1_P4E.1_K4.1_C4.1_H4.1_A4.1_[T5A]_[A6C]_[T7G]_F4.1_[T8C]_[A9G]_T4.1],Kd,> 2300 nM
UCUCUUUGUAACGCCUCUCUU (ssRNA) [Ic_S1_P4E.1_K4.1_C4.1_H4.1_A4.1_[T5A]_[A6C]_[T7G]_F4.1_[T8C]_[A9C]_T4.1],Kd,2000 nM
UCUCUUUGUAACGCUUCUCUU (ssRNA) [Ic_S1_P4E.1_K4.1_C4.1_H4.1_A4.1_[T5A]_[A6C]_[T7G]_F4.1_[T8C]_[A9T]_T4.1],Kd,581 nM
UCUCUUUGUAACGAUUCUCUU (ssRNA) [Ic_S1_P4E.1_K4.1_C4.1_H4.1_A4.1_[T5A]_[A6C]_[T7G]_F4.1_[T8A]_[A9T]_T4.1],Kd,884 nM
UCUCUUUGUAACGUGUCUCUU (ssRNA) [Ic_S1_P4E.1_K4.1_C4.1_H4.1_A4.1_[T5A]_[A6C]_[T7G]_F4.1_[A9G]_T4.1],Kd,758 nM
UCUCUUUGUAACGUCUCUCUU (ssRNA) [Ic_S1_P4E.1_K4.1_C4.1_H4.1_A4.1_[T5A]_[A6C]_[T7G]_F4.1_[A9C]_T4.1],Kd,789 nM
UCUCUUUGUAACGUUUCUCUU (ssRNA) [Ic_S1_P4E.1_K4.1_C4.1_H4.1_A4.1_[T5A]_[A6C]_[T7G]_F4.1_[A9T]_T4.1],Kd,314 nM
UCUCUUUGUAACGUAUCUCUU (ssRNA) [Ic_S1_P4E.1_K4.1_C4.1_H4.1_A4.1_[T5A]_[A6C]_[T7G]_F4.1_T4.1],Kd,17.3 nM
UCUCUUUGUAACCGAUCUCUU (ssRNA) [Ic_S1_P4E.1_K4.1_C4.1_H4.1_A4.1_[T5A]_[A6C]_[T7C]_F4.1_[T8G]_T4.1],Kd,> 2300 nM
